Assay results as given in the DeepSol protein solubility set.

Assay: soluble on expression in E. coli; label from the status in PepcDB or PDB records

| Sequence | soluble on expression in E. coli |
| --- | --- |
| MRVLIRSSASGSEYWDTEEKRNVFVPKGQEPDFEVTENPESMLSKEADLHVGGLPITVGNVTIDTDGIKGERLLTTASAADDEEQDELVPSDDESVVLEEMNVKELREYAKRKGIEIPSAVRAKGEILNIIKESE | not soluble |
| MRVLITGATGGLGGAFARALKGHDLLLSGRRAGALAELAREVGARALPADLADELEAKALLEEAGPLDLLVHAVGKAGRASVREAGRDLVEEMLAAHLLTAAFVLKHARFQKGARAVFFGAYPRYVQVPGFAAYAAAKGALEAYLEAARKELLREGVHLVLVRLPAVATGLWAPLGGPPKGALSPEEAARKVLEGLFREPVPALLEV | soluble |
| MRVLVLGGGVLGRAIAESLFGEFEVIVVEKDEVRVQTLAEKGLQVVQGDFSYTATLLKAHIEKADLIVITISDPEVIAKTLHVIQNNNKDAAVLLILPEDTSLEEIASIAKEKYDTDVKVDYVINPRSAIVRAVVDTIEKIGEKKNSMKLIEKLNEIKENTDTLLIVMHDNPDPDCMASASALSLIAQTVGLKTVIVYGGDITHHQNRAMVNILGMDFRKVSRGSYEIKRHSAIAIVDAQPNGNISILDDEDIAKVQIIIDHHQILQNLREKLPDNCFVDIRPEANSTSSILVEYLKSLEIPIDENLATALFYGMYIDTKKFSKLSKIDIKAIEFLSGHVDYDLLDKIEFPDISTETAEILARAILNRRIYKNVIISNVGFIANRDAIAEAADFLLRLEGITTVLVFGIVDDRIEISARTRDVRVNIGAIMKEAFGSLGSGGGHPQAGGARIPLGIFKLAKDKASLLRLVEEAITERFLEALGMREGT | not soluble |
| MRVTDFSFELPESLIAHYPQPERSRCRLLSLEGPTGALTHGTFTDLLDKLNPGDLLVFNNTRVIPARLFGRKASGGKIEVLVERMLDDKRILAHIRASKAPKPGTELLLGDDESIHATMTARHGALFEVEFNDPRPVLDILNAIGHMPLPPYIDRPDEDADRELYQTVYSEKPGAVAAPTAGLHFDEPLLAALREKGVEMAFVTLHVGAGTFQPVRVDTIEDHIMHSEYAEVPQEVVDAVLAAKARGNRVIAVGTTSVRSLESAAQAAKSDLIEPFFGDTQIFIYPGYQYKVIDALITNFHLPESTLIMLVSAFAGYQHTMNAYKTAVEQKYRFFSYGDAMFITYNPQAISERP | not soluble |
| MRVYRVKGEVLVAVCDSDIVGKTFREGDLKIEVKESFYGSEEVGEEEVKRALRNATIANITGKKAVELAARIGIIDRNRVLYIGGCPHAQMVVM | not soluble |
| MRWLLVVAGLLAAGGLAQTPPPPAAQTAEQNPLRLGVQLYALGRYDAALTLFERALKENPQDPEALYWLARTQLKLGLVNPALENGKTLVARTPRYLGGYMVLSEAYVALYRQAEDRERGKGYLEQALSVLKDAERVNPRYAPLHLQRGLVYALLGERDKAEASLKQALALEDTPEIRSALAELYLSMGRLDEALAQYAKALEQAPKDLDLRVRYASALLLKGKAEEAARVLEEGHRIKPLNAEGWYTLGQAYLALGRTKEAGVALENAVALAPLRFPAAYYYLGQVYLALGDYPKAKSRLTVAVRLEPKRAEYRYSLCLANEKLGDKEGARYQCQEALKLRPDYKEAEEVLKRL | soluble |
| MRYITAGESHGPQLTTIIEGVPAGLPLVADDINEELARRQKGYGRGRRMQIETDQVQIVSGVRHGETLGSPIALVVENRDFAHWTKIMGAEPLTEQEEKEMKRKVTKPRPGHADLNGAIKYGHRDMRNVLERSSARETTVRVAAGAVAKKVLAELGITVAGHVIEIGGVEAKETTYRSIEELKSITEASPVRCLDEEAGNQMIKAIDDAKSNGDSIGGIVEVIVEGMPIGVGSYVHYDRKLDAKLAAAIMSINAFKGVEIGIGFEAAHRPGSEVHDEILWNEEHGYTRRTNNAGGLEGGMTTGMPIVVRGVMKPIPTLYKPLQSVDIDTKEPFTASIERSDSCAVPAASVVAEAVVAWELATALIEQFGLDRMDLIRENIEKHNEYARGF | not soluble |
| MRYRPVIGLEIHVQLSTKTKAFCSCPADVFELPPNTAICPVCTGQPGALPVPNEEMIRFAVKTALALNCKIHKYSRFDRKNYFYPDLPKGYQISQYFYPIATEGFLEIDGDEGRKKVRIRRLHLEEDAGKLVHEGDSITRASYSLVDMNRCGVPLIEIVTEPDISSPREARVFMEKLRSIVRYLGVSTGDMEKGALRCDANISVVDTETGRQSNRVEVKNMNSFRFVERALEYEFERIVKAMERGEDVERETRGWDMATKITVSMRGKEEESDYRYFPEPDIPPVVLSDEYLEEVKKELPELPDEKAERFMREYGLPEYDAKVLTSSKELAEFFEECVKVVNRPKDLSNWIMTEVLRELNERNIEITESKLTPQHFADLFKLMDEGKISIKIAKEIFPEVFETGKMPSQIVEEKGLTQINDEKLIEELVKKAMEQNPKAVQDYKSGKKKAAGFFVGYVMRETKGKANPELTNRIIQKLLEGE | soluble |
| MSAAHKNLLAVWAKEPKDLVAVEKALNELTKVLSASSDLNDKQSALASKDLYEISVLLAILKHDFETFDDYINQMHTYYTMAPENSENKHLMTGLHLMFLLAANRLSDFHMLLEQIPQKEQTSNAYISTPVRIEQSLMEGAYNKVVLTEKNIPSPFYTIFIRIMLDTIRREIATSIEKSFKVLTAKDATVMLLFDNDEQMKKFGQERKWHLDGERYVFEIEVAQEKPVNLDTVRVATQTLFYAKQLEQIV | not soluble |
| MSADYSSEKFKATHLFDEILWHFRSNLSLKTNRRGLATAENSFSGKEAVDFLMIEMPRIIPNNVPERDKMQKFLEFMMDMNVISEAFPKKVKQRRPFSESRIYLFMKTLDELKHPKPRSRRSASFSGARKSAKVAQPASPAATMHRPPKARLPRRLSRSNGNIDKAGIDNSSGGVENHGFDDHKDDEIPKKQRTPKILNRSLESICTEEYTEKREVSEMKEKVYDWLPFFKSRRNHTKVNQPTRRSASLDRNHCVLEQEKAEAALRSQKVTTPPIREAPKDVVFMHPQGPLPAVPSRYQNHRTSIAGSNPALLSRGRMYESIMRRSSVVPVADSVQANNECSFWKTELLGRLEQIYDRTLPCEWASKVDGYDIQWNMIEIDHADGIVKSRCQGLQPDYPQTVIQFMDYLVRYPFVTHKKMDTGLEYNVNRIFITLVNRLEDLNAPLQFDECSLIVNLLCKIDSFAAMLDNGPARRWSKVMISSSASSIEEAGLMVDGFSRDLPACGIRASKYRRRALSPFDNRVNLEIQDEKSYEIREQWLIEAIQLVLLSLPTSRRRKLHKFVTFIQSIETNAVFDLADPSNGSSNNREAAIIGLWTGVCSKCRKQQGMLITAVLLANFQSLFAVPVEFIEQVKRLECEEKDRYSGPRYAKITRSRNDWQPPVPDKPQASPAVFKKPLREVACEKTKKGLFTRLLRK | not soluble |
| MSASKILSQKIKVALVQLSGSSPDKMANLQRAATFIERAMKEQPDTKLVVLPECFNSPYSTDQFRKYSEVINPKEPSTSVQFLSNLANKFKIILVGGTIPELDPKTDKIYNTSIIFNEDGKLIDKHRKVHLFDVDIPNGISFHESETLSPGEKSTTIDTKYGKFGVGICYDMRFPELAMLSARKGAFAMIYPSAFNTVTGPLHWHLLARSRAVDNQVYVMLCSPARNLQSSYHAYGHSIVVDPRGKIVAEAGEGEEIIYAELDPEVIESFRQAVPLTKQRRFDVYSDVNAH | soluble |
| MSASVSDPYEQMPAAPTDDDLEDKPEADKKALLNQVFKSLKRAQDLFYHDYAQPPPMPEENDSLIRSMKRKHEYGNVIKKVEEMKVRRENEMLALPTSQPMHGTGSVIASAGTPLAITDGSGKLVNQQQGSAKSGTLLPLVPLGNSSKGEDNTTRSLLPSKAPMMMKPKWHAPWKLYRVASGHTGWVRAVDVEPGNQWFASGGADRIIKIWDLASGQLKLSLTGHISSVRAVKVSPRHPFLFSGGEDKQVKCWDLEYNKVIRHYHGHLSAVQALSVHPSLDVLVTCARDSTARVWDMRTKAQVHCFAGHTNTVADVVCQSVDPQVITASHDATVRLWDLAAGRSMCTLTHHKKSVRALTIHPRLNMFASASPDNIKQWKLPKGEFMQNLSGHNAIINTLSSNDDGVVVSGADNGSLCFWDWRSGFCFQKIQTKPQPGSIESEAGIYASCFDKTGLRLITAEADKTIKMYKEDDEATEESHPIVWRPEIVKKKAY | not soluble |
| MSATPPTTPAPTAAASAGKGLHSRAYNGLIKACDKYVPPKMRPLWMHPAGPKTIFFWAPIVKWSLVIAGLSDLTRPADKISPNGCLALGATNLIWTRYSLVIIPKNYSLFAVNLFVSLTQLFQLGRYYNYQWEQSRLEKNGEQCPAIEASLLEHHHHHH | not soluble |
| MSATSATNFAVQTHPVKAPDEEYFFEGAEKLLELWFCSSTQNETRSLRIIPREEIDAMLDIARCKILHSKHNESIDSYVLSESSLFISDNRVILKTCGTTRLLAALPVIMQLAGAYAGLDQVQSVYYSRKNFLRPDLQPSLHKNFDAEVEYLDSFFVDGHAYCLGSLKQDRWYLYTFHREVEFPAHKQPDHTLEILMSDLDEEVLHKFTKDYAVDGNDCFMRAGIDKIIPAGADVHDELFDPCGYSMNAYMNDTDQYATIHVTPEKAFSFASFETNQDLVCLYSQTRKVLQCFRPNKILMTVFANDISEKGKDAQQQLWDRELPGYRRTNVQFVRLETETLVYAHFVRKASTGQDSSSSDEDDGERSD | not soluble |
| MSAVFGAKYTLRFGHVLAPGEPYHQAFLKWAKAVEEKTNGDVRIEVFPSSQLGVEEDIIEQIRMGAPVGWNTDSARLGMYVKDIGVMNLAYFIDFMGAKTPEEAIEVLKKIKQSPTMQKWLKELEQRFGIKVLSFYWVQGYRHFVTNKPIRKPEDLNGLRIRTPGAPAWQESIRSLGAIPVAVNFGEIYTAVQTRAVDGAELTYANVYNGGLYEVLKYMSETGHFLLINFEIVSADWFNSLPKEYQKIIEEEMDKAGIEVSLKIMKELEEEYKQKCIEKGMAVIPASEIDKEAFMEKAKQAYKNLGLENALNQLIKEVKGEHHHHHH | soluble |
| MSAVNGLVPSTIFDRINSDMDVSEEMEEIREVLYEMIKTNFPMGVAATHLSEKYHEEFVSKGLGRELPEDWIQQVTAAEEFEAQTRGPITILFVRLSNTSSFKRPPINSVNVRVISTDREPTADELKKIKQRKENEPTEHAKTLSQQSVALKEGSTVSIVYADSPKRFFIRALADDDQYEKIGTTLAEIYAQETPPSALDSRVAIYEIVAGGAYALQDSNGTWFRVIAKQPPQSGQVMCHFVDVGVCEKFPVAAIRLLPPAVHPVMSIGSMAREVRMDVSEEESLRLNNKFVDLTFETKDDGIQVPINLTLSKFDSSDSESLPVVDLQSSDGLSITEFLKKPSGVVRLSTPTKTTSPITPASASTSSLTCLFDKPATIQPMTVAQMPMSAFPANAIFAAGPTDISLRQLSLDPMPDYMYAKLKDECALPDSQLESSPDFGGFYAAFIDDRWERVQCIRASKIDKQAYCVYLLDVGAFQYVRKEAMRRLNSTSPFKKMLMFKCKIGGIKPVAGGEVWSRESHEAVREFFEAACGEPVVVEPTQPGWSQWKQLNAPAVPTCEARLSCCGRDIGDWLIACGLALPINAPIPSPNSQSLLTFVPTPINIVGRNI | not soluble |
| MSAWTMSDPYPATEAHAQRAAKSSPKSLLDRLLSLVRREPEDREGIKAILEAAHERELLDAESYAMIKGALAVSERTVADIMVPRSRMDLLDISQPLPQLLATIIETAHSRFPVYEDDRDNIIGILLAKDLLRYMLEPALDIRSLVRPAVFIPEVKRLNVLLREFRASRNHLAIVIDEHGGISGLVTMEDVLEQIVGDIEDEFDEDEEESIFPEGENQWRLTASTDISHFNATFATDLPDDEYDSVGGWLGGQLGRIPRRGDSADHDGLHIEVVRADARRALWLRVRRNAGAQPPASAAE | not soluble |
